In patent publication US20190375846A1 (ULTRAHUMAN ONE, published 2019):

Assays:
[1] = target: T1, human GITR-Fc (human, UniProt Q9Y5U5 26-161); test: direct titration ELISA on coated human GITR-Fc, IgG1 0.001-1 µg/ml, OD 450 nm
T1 construct: Recombinant GITR-Fc; also called hGITR-Fc; hGITR; not shown: Fc part
T1 sequence (looked up): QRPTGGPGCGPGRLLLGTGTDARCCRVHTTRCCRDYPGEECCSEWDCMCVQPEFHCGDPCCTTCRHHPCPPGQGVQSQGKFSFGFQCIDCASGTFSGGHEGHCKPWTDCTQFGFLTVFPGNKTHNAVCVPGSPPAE
Protocol: (§1) To coat Greiner Bio-One High bind ELISA plates, target proteins were diluted to 1 μg/ml in carbonate buffer and added at 100 μl per well, at 4° C., o/n. Coated plates were washed 3× with PBS pH7.4, blocked with 1% BSA in PBS (380 μl/well) for 1 hr at RT, then washed 3× with PBS-Tween 20 (PBST). GITR antibodies (100 μl/well; diluted in PBST) were then added and then incubated 1 hr at RT. Plates were then washed 3× with PBST and goat anti-human kappa chain-HRP added (100 μl/well) at RT, for 1 hr. Plates were then washed 3× with PBST and twice with PBS before the addition of 100 μl TMB per well. Reactions were stopped by adding 100 μl 2M H₂SO₄/well and OD was read on a plate reader at 450 nm. IgG binding analysis via ELISA on negatively charged biomolecular surfaces were performed as previously described (see Mouquet et al., 2010, Nature 467: 591-595).
(§2) Retention of GITR-binding function in the purified IgG1 proteins was first examined by titration in direct binding ELISA against human GITR-Fc. […] Importantly, the >100-fold loss of binding function in the VH2 IgG family further illustrated that the HCDR1 could not be fully germ-lined a priori to match the native sequence of the human germline HCDR1 found in the framework used for grafting (IGHV3-7).

[2] = target: T1, human GITR-Fc; test: ELISA of IgG1 proteins
Protocol: as §1
To examine the influence of these mutations on immunogenicity and function, five further designer mutants (A6.1 to A6.5, see Table 4 for CDR sequences) were also submitted for Epibase analysis (Table 5). […] Cyno GITR binding was greatly diminished for all of clones A6.2 to A6.5.

[3] = target: T1, human GITR-Fc; test: direct titration ELISA, coated human GITR-Fc, IgG1
Protocol: as §1, §2

[4] = target: T1, human GITR-Fc; test: SPR (Biacore), Fab over GITR-Fc captured on anti-human Fc, 37 C, 1:1 model
Protocol: (§3) For affinity estimation, anti-human IgG Fc antibody was amine coupled at pH 5 onto three flow cells (Fc 1 to Fc 3) of a Biacore CM5 chip. The level of anti-Fc antibody immobilised onto the chip was approximately 550 RU. Human and cyno GITR-Fc and irrelevant receptor-Fc proteins were then captured onto the anti-Fc antibodies (by injecting over the antibody surface until nearly/completely saturated) in order that 80-100 RU were captured. Fab monomers were then injected over the Fc proteins captured on the chip at 37° C. a flow rate of 50 μl/min for 120 seconds, followed by Biacore running buffer (HBS-EP) being flowed over the chip for 240 seconds at 50 μl/min. The chip was regenerated between cycles using 2×15 second injections of 10 mM Glycine pH 2. The concentrations of Fab samples tested were 400, 200, 100, 50, 25, 12.5, and 6.25 nM. A Biacore running buffer control (0 nM) was also included as a control.
(§4) Monomeric Fab fragments were generated and flowed in the mobile phase on human and cyno GITR-Fc coated biosensor chips, to derive 1:1 binding values.

[5] = target: T2, cynomolgus monkey GITR-Fc (cynomolgus monkey (Macaca fascicularis)); test: as above
T2 construct: also called cyno GITR-Fc; cGITR-Fc
Protocol: as §3, §4

B1: VH4/VL1 IgG1 (antibody, V domains shown)
VH: EVQLVQSGAEVKKPGESLKISCKGSGFSLSTSGMGVGWVRQMPGKGLEWLAHIWWDDDKYYSPSFQGQVTISADKSISTAYLQWSSLKASDTAMYYCARTRRYFPFAYWGQGTLVTVSS
VL: EIVMTQSPATLSVSPGERATLSCKASQNVGTNVAWYQQKPGQAPRLLIYSASYRYSGIPARFSGSGSGTEFTLTISSLQSEDFAVYYCQQYNTDPLTFGGGTKVEIK
notes: Human IgG1; also called VH4 family
[1]
  binding result: binds

B2: VH4/VL2 IgG1 (antibody, V domains shown)
VH: EVQLVQSGAEVKKPGESLKISCKGSGFSLSTSGMGVGWVRQMPGKGLEWLAHIWWDDDKYYSPSFQGQVTISADKSISTAYLQWSSLKASDTAMYYCARTRRYFPFAYWGQGTLVTVSS
VL: EIVLTQSPATLSLSPGERATLSCRASQNVGTNVAWYQQKPGQAPRLLIYSASYRYSGIPARFSGSGSGTDFTLTISSLEPEDFAVYYCQQYNTDPLTFGGGTKVEIK
notes: as for B1
[1]
  binding result: binds

B3: VH4/VL3 IgG1 (antibody, V domains shown)
VH: EVQLVQSGAEVKKPGESLKISCKGSGFSLSTSGMGVGWVRQMPGKGLEWLAHIWWDDDKYYSPSFQGQVTISADKSISTAYLQWSSLKASDTAMYYCARTRRYFPFAYWGQGTLVTVSS
VL: DIQMTQSPSSLSASVGDRVTITCRASQNVGTNVAWYQQKPGKAPKLLIYSASYRYSGVPSRFSGSGSGTDFTLTISSLQPEDFATYYCQQYNTDPLTFGGGTKVEIK
notes: as for B1
[1]
  binding result: binds

B4: VH3/VL1 IgG1 (antibody, V domains shown)
VH: EVQLVESGGGLVQPGGSLRLSCAASGFSLSTSGMGVGWVRQAPGKGLEWLAHIWWDDDKYYVDSVKGRFTISRDNAKNSLYLQMNSLRAEDTAVYYCARTRRYFPFAYWGQGTLVTVSS
VL: EIVMTQSPATLSVSPGERATLSCKASQNVGTNVAWYQQKPGQAPRLLIYSASYRYSGIPARFSGSGSGTEFTLTISSLQSEDFAVYYCQQYNTDPLTFGGGTKVEIK
notes: Human IgG1; also called VH3 family
[1]
  binding result: binds

B5: A6.1 IgG1 (antibody, V domains shown)
VH: EVQLVESGGGLVQPGGSLRLSCAASGFSLSTSGYGVGWVRQAPGKGLEWLAHIWWDDDKYYVDSVKGRFTISRDNAKNSLYLQMNSLRAEDTAVYYCARTRQYFPFAYWGQGTLVTVSS
VL: EIVLTQSPATLSLSPGERATLSCRASQSVGSNLAWYQQKPGQAPRLLIYSASNRYTGIPARFSGSGSGTDFTLTISSLEPEDFAVYYCQQYSTDPLTFGGGTKVEIK
notes: Human IgG1, designer mutant of D-A6; built as m28; also called D-A6.1; Clone A6.1
[2]
  binding result: binds

B6: MH-1 IgG1 (antibody, V domains shown)
VH: EVQLVESGGGLVQPGGSLRLSCAASGFSLSTSGMGMSWVRQAPGKGLEWVAHIWWDDEKYYVDSVKGRFTISRDNAKNSLYLQMNSLRAEDTAVYYCARTRQYFPFAYWGQGTLVTVSS
VL: EIVLTQSPATLSLSPGERATLSCRASQSVGSNLAWYQQKPGQAPRLLIYSASYRATGIPARFSGSGSGTDFTLTISSLEPEDFAVYYCQQYSTDPLTFGGGTKVEIK
notes: Human IgG1, designer clone; built as m28; also called Clone MH-1
[3]
  binding result: binds

B7: MH-2 IgG1 (antibody, V domains shown)
VH: EVQLVESGGGLVQPGGSLRLSCAASGFSLSTSGYGVSWVRQAPGKGLEWVAHIWWDDEKYYVDSVKGRFTISRDNAKNSLYLQMNSLRAEDTAVYYCARTRQYFPFAYWGQGTLVTVSS
VL: EIVLTQSPATLSLSPGERATLSCRASQSVGSNLAWYQQKPGQAPRLLIYSASYRATGIPARFSGSGSGTDFTLTISSLEPEDFAVYYCQQYSTDPLTFGGGTKVEIK
notes: Human IgG1, designer clone; built as m28; also called Clone MH-2
[3]
  binding result: binds

B8: MH-3 IgG1 (antibody, V domains shown)
VH: EVQLVESGGGLVQPGGSLRLSCAASGFSLSTSGYGMSWVRQAPGKGLEWVAHIWWDDEKYYVDSVKGRFTISRDNAKNSLYLQMNSLRAEDTAVYYCARTRQYFPFAYWGQGTLVTVSS
VL: EIVLTQSPATLSLSPGERATLSCRASQNVGSNLAWYQQKPGQAPRLLIYSASYRATGIPARFSGSGSGTDFTLTISSLEPEDFAVYYCQQYSTDPLTFGGGTKVEIK
notes: Human IgG1, designer clone; built as m28; also called Clone MH-3
[3]
  binding result: binds

B9: MH-4 IgG1 (antibody, V domains shown)
VH: EVQLVESGGGLVQPGGSLRLSCAASGFSLSTSGYGMSWVRQAPGKGLEWVAHIWWDDEKYYVDSVKGRFTISRDNAKNSLYLQMNSLRAEDTAVYYCARTRQYFPFAYWGQGTLVTVSS
VL: EIVLTQSPATLSLSPGERATLSCRASQSVGSNVAWYQQKPGQAPRLLIYSASYRATGIPARFSGSGSGTDFTLTISSLEPEDFAVYYCQQYSTDPLTFGGGTKVEIK
notes: Human IgG1, designer clone; built as m28; also called Clone MH-4
[3]
  binding result: binds

B10: VH1/VL1 Fab (Fab, V domains shown)
VH: QVTLRESGPALVKPTQTLTLTCTFSGFSLSTSGMGVGWIRQPPGKALEWLAHIWWDDDKYYNPSLKSRLTISKDTSKNQVVLTMTNMDPVDTATYYCARTRRYFPFAYWGQGTLVTVSS
VL: EIVMTQSPATLSVSPGERATLSCKASQNVGTNVAWYQQKPGQAPRLLIYSASYRYSGIPARFSGSGSGTEFTLTISSLQSEDFAVYYCQQYNTDPLTFGGGTKVEIK
notes: also called VH1/VL1 Fab fragment
[4]
  Kd: 110 nM
  koff: 0.0051 s⁻¹
  kon: 45000 M⁻¹ s⁻¹
[5]
  Kd: 270 nM
  koff: 0.0061 s⁻¹
  kon: 22000 M⁻¹ s⁻¹

B11: VH1/VL2 IgG1 (antibody, V domains shown)
VH: QVTLRESGPALVKPTQTLTLTCTFSGFSLSTSGMGVGWIRQPPGKALEWLAHIWWDDDKYYNPSLKSRLTISKDTSKNQVVLTMTNMDPVDTATYYCARTRRYFPFAYWGQGTLVTVSS
VL: EIVLTQSPATLSLSPGERATLSCRASQNVGTNVAWYQQKPGQAPRLLIYSASYRYSGIPARFSGSGSGTDFTLTISSLEPEDFAVYYCQQYNTDPLTFGGGTKVEIK
notes: Human IgG1; also called VH1 family
[1]
  binding result: binds

B12: VH1/VL3 IgG1 (antibody, V domains shown)
VH: QVTLRESGPALVKPTQTLTLTCTFSGFSLSTSGMGVGWIRQPPGKALEWLAHIWWDDDKYYNPSLKSRLTISKDTSKNQVVLTMTNMDPVDTATYYCARTRRYFPFAYWGQGTLVTVSS
VL: DIQMTQSPSSLSASVGDRVTITCRASQNVGTNVAWYQQKPGKAPKLLIYSASYRYSGVPSRFSGSGSGTDFTLTISSLQPEDFATYYCQQYNTDPLTFGGGTKVEIK
notes: as for B11
[1]
  binding result: binds

B13: VH3/VL3 IgG1 (antibody, V domains shown)
VH: EVQLVESGGGLVQPGGSLRLSCAASGFSLSTSGMGVGWVRQAPGKGLEWLAHIWWDDDKYYVDSVKGRFTISRDNAKNSLYLQMNSLRAEDTAVYYCARTRRYFPFAYWGQGTLVTVSS
VL: DIQMTQSPSSLSASVGDRVTITCRASQNVGTNVAWYQQKPGKAPKLLIYSASYRYSGVPSRFSGSGSGTDFTLTISSLQPEDFATYYCQQYNTDPLTFGGGTKVEIK
notes: as for B4
[1]
  binding result: binds

B14: VH2/VL1 IgG1 (antibody, V domains shown)
VH: EVQLVESGGGLVQPGGSLRLSCAASGFTFSSYWMSWVRQAPGKGLEWLAHIWWDDDKYYVDSVKGRFTISRDNAKNSLYLQMNSLRAEDTAVYYCARTRRYFPFAYWGQGTLVTVSS
VL: EIVMTQSPATLSVSPGERATLSCKASQNVGTNVAWYQQKPGQAPRLLIYSASYRYSGIPARFSGSGSGTEFTLTISSLQSEDFAVYYCQQYNTDPLTFGGGTKVEIK
notes: Human IgG1; The dash printed in the HCDR1 of VH2 is an alignment gap; also called VH2 family
[3]
  fold loss of binding function (against mVH/mVL IgG): > 100 fold

B15: VH2/VL2 IgG1 (antibody, V domains shown)
VH: EVQLVESGGGLVQPGGSLRLSCAASGFTFSSYWMSWVRQAPGKGLEWLAHIWWDDDKYYVDSVKGRFTISRDNAKNSLYLQMNSLRAEDTAVYYCARTRRYFPFAYWGQGTLVTVSS
VL: EIVLTQSPATLSLSPGERATLSCRASQNVGTNVAWYQQKPGQAPRLLIYSASYRYSGIPARFSGSGSGTDFTLTISSLEPEDFAVYYCQQYNTDPLTFGGGTKVEIK
notes: Human IgG1; also called VH2 family
[3]
  fold loss of binding function (against mVH/mVL IgG): > 100 fold

B16: VH2/VL3 IgG1 (antibody, V domains shown)
VH: EVQLVESGGGLVQPGGSLRLSCAASGFTFSSYWMSWVRQAPGKGLEWLAHIWWDDDKYYVDSVKGRFTISRDNAKNSLYLQMNSLRAEDTAVYYCARTRRYFPFAYWGQGTLVTVSS
VL: DIQMTQSPSSLSASVGDRVTITCRASQNVGTNVAWYQQKPGKAPKLLIYSASYRYSGVPSRFSGSGSGTDFTLTISSLQPEDFATYYCQQYNTDPLTFGGGTKVEIK
notes: as for B15
[3]
  fold loss of binding function (against mVH/mVL IgG): > 100 fold
